Results taken from US20240026334A1.

Biological target: type I collagen
Experiment: cell-based or functional assay

- unbound DNA in DNA binding assay (1:1 elastin to collagen): 0.077 µM
- unbound DNA in DNA binding assay (1:2 elastin to collagen): 0.116 µM
Substance: elastin
